Where a SMILES comes first, the peptide text is derived from it. [ ]: non-standard residue; d: D form. The star is where a group is joined. Sta = CC(C)C[C@H](N)[C@@H](O)CC(=O)O; Isovaleryl = CC(C)CC(=O)*
Assays:
cathepsin D [1] = assay: Protease inhibitor confirmation study: pepstatin A added to DSI samples, NR-1 band and Y/L clipping; format: biochemical, Chinese hamster; conditions: DSI samples from both facilities, pepstatin A added at 37° C., assessed at day 3 and day 5
Experimental: Once cathepsin D was identified to be a potential reason for the cleavage of aflibercept, a cathepsin D inhibitor was used to confirm the finding. AEBSF and Aprotinin bovine lung (serine protease inhibitors), E64 and Leupeptin hemisulfate (cysteine protease inhibitors) and pepstatin A (an aspartic protease inhibitor) were evaluated for their ability to inhibit activity of cathepsin D.
To the samples from lots from both the facilities containing DSI at t=0, pepstatin A was added at 37° C. and % of NR-1 band formed was assessed at day 3 and day 5.

cathepsin D [2] = assay: Stability observation in presence and absence of inhibitor pepstatin A (SE-UPLC HMW, CE-SDS NR1); format: physicochemical, Chinese hamster
Experimental: Formulated Drug Substance with high (pre-optimization) and low (post-optimization) cathepsin D were blended to achieve various levels of cathD (FIG. 35B). These mixtures were prepared to compare to cathepsin D levels below, at, and above the highest known levels that were observed post-optimized IVT and had acceptable stability performance. The blended material was put on 25° C. stability observation in both the presence and absence of the inhibitor pepstatin A (FIG. 35A).
The Drug Substance Intermediate from two Lots was placed on stability observation at 25° C. in the presence (open triangle) and absence (closed triangle) of the inhibitor pepstatin A for 6 months (FIG. 36).
Samples were placed on 25° C. and 5° C. stability observation in the presence and absence of cathepsin D inhibitor. HMW formation was analyzed by SE-UPLC and NR1 formation was analyzed by CE-SDS.

cathepsin D [3] = assay: Cathepsin D spike-in into aflibercept DS, Y92L93 clipping / NR-1 band; format: physicochemical, Chinese hamster
Experimental: Production of the Y92L93 clipping was attempted using cathepsin D. To a sample of aflibercept DS, cathepsin D was added and incubated at 37° C. at pH 6.1. Different concentrations of cathepsin D were evaluated, including 1 ppm, 2 ppm, 5 ppm, and 10 ppm.
Since the failure of cathepsin D to affect the truncation could be due to reaction conditions, the experiment was repeated at a lower pH since cathepsin D needs to be activated by lower pH for conformational switch to mature cathepsin D. Cathepsin-D is an aspartic protease that depends critically on protonation of its active site Asp residue. Along with Asp-protonation, lower pH also leads to conformational switch in mature cathepsin-D. See Briozzo P et al. (1988). Cancer Research. 48 (13): 3688-92.
To test the DS samples with the presence of activated cathepsin D, to a sample from DS at t=0, 100 ppm acidified cathepsin D was added at 37° C. and incubated for 5 hours.
The clipping activity was also observed at neutral condition when acidified […]) was added.
Target sequence in this assay (as listed by the source): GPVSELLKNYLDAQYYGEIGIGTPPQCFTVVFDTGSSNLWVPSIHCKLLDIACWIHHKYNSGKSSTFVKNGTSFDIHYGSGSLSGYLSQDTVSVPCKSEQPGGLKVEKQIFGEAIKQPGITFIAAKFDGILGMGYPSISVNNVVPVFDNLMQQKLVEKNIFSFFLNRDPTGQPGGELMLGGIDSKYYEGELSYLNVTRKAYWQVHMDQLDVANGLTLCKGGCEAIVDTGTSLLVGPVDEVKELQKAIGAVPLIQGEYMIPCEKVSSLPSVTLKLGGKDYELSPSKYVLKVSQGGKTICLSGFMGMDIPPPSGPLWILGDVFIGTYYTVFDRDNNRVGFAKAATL

cathepsin D [4] = assay: Impact of pH on NR-1 band formation in DSI incubated at 37° C.; format: physicochemical, Chinese hamster
Experimental: Testing of DSI samples from both facilities A and B for aflibercept production also show similar results.
The impact of pH is so significant that use of different buffers can also show a difference in the Y92L93 clipping observed during the production of aflibercept. For example, citric acid was employed at facility B to achieve a pH of 6.1 and sodium citrate was employed at facility A to achieve a pH of 6.2, despite other conditions remaining the same (i.e., incubation of DSI at 37° C. for 12 days, intermediate time point taken at 3rd and 6th day). While the difference in the pH is 0.1, the effect through cathepsin D based clipping is notable over time (data not shown).
All samples were incubated at 37° C. for 12 days, intermediate time point taken at 3rd and 6th day.
Target sequence in this assay (G3I4W7 65-408 limits assumed): as the sequence (as listed by the source) above

[5] = Stability study of aflibercept lots at 5° C. and 25° C. (CE-SDS, SE-UPLC); format: physicochemical
Experimental: This study investigated how a residual HCP can piggy-back through the aflibercept DSI manufacturing process.
Drug substance intermediate (DSI) lots containing aflibercept at two different concentrations (40 mg/ml and 114.3 mg/ml) were evaluated at 5° C. and 25° C.
Using the modified SEC purification, the high concentration DSI lot was purified downstream using SEC. […] (as mentioned in Example 10).
An earlier cut in time for the eluting peak was implemented for the SEC step for the higher concentration DSI lots (FIG. 28) resulting in increased clearance and subsequently lower levels of cathepsin D at FDS (FIG. 29). […] Accelerated stability (25′C for 6 months) was investigated. The cumulative increase in HMW (FIG. 33A) and R1 (FIG. 33B) was represented over that 6 months by calculation of the slope. […] The DSI was analyzed for stability at 25° C. for 6 months. The rate of NR1 species was calculated from T0 to T6 months and plotted against the cathepsin D value obtained by ELISA (FIG. 34A), Activity Assay (FIG. 34B) and Mass Spectrometry (FIG. 34C).

[6] = Mass spectrometry analysis of Y92/L93 clipping in stability lots; format: physicochemical; conditions: high concentration (114.3 mg/mL) lot vs low concentration lots, accelerated stability
Experimental: The analysis was performed by denaturing SEC-MS, which can provide (partial) liquid chromatography separation between the intact receptor domain and NR1 species (with Fc removed) for the successful detection of the low levels of NR1 species. The DS and DSI sample from lots A and B were analyzed using a modified mass analysis (samples 1-7 are representative of both DS and DSI samples from both the lots). The modification made is possible to differentiate the peaks of the receptor domain of aflibercept and truncated aflibercept.
Mass spectrometry analysis further confirmed (3.4×) higher levels of Y92/L93 clipping for the unexpected aflibercept high concentration lot when compared to […] clipping observed for low concentration lots (FIG. 18). Increased NR1 due to cathepsin D cleavage at Y92/L93 of aflibercept was linked to increased aggregate formation (FIG. 19 and FIG. 20).

cathepsin D [7] = assay: Octet HTX interaction analysis of aflibercept and cathepsin D; format: binding, Chinese hamster
Experimental: FIG. 31 […], wherein cathepsin D was immobilized to the biosensor, while VEGF-Trap was the analyte (A), according to an exemplary embodiment.
Interaction analysis was carried out using OCTET HTX sensorgram.
Since cathepsin D can “piggy back” onto aflibercept during purification of aflibercept, in order to reduce the interactions, use of surfactants was implemented.
Target sequence in this assay (G3I4W7 entry or part of it F138E): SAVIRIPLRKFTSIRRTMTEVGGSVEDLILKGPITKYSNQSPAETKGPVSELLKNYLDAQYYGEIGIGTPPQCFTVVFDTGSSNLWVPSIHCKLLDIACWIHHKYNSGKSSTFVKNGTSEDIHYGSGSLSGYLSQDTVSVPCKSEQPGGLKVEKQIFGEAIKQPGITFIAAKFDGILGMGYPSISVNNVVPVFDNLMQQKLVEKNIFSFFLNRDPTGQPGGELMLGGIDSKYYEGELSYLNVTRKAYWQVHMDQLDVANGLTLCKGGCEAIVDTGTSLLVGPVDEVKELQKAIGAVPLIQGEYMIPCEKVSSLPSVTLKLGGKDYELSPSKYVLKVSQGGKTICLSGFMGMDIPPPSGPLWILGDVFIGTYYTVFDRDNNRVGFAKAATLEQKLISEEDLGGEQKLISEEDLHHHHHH

[8] = DSI from two lots, 25° C., 6 months, pepstatin A present vs absent

For `CC(C)CC(=O)N[C@H](C(=O)N[C@H](C(=O)N[C@@H](CC(C)C)[C@@H](O)CC(=O)N[C@@H](C)C(=O)N[C@@H](CC(C)C)[C@@H](O)CC(=O)O)C(C)C)C(C)C` [pepstatin A] (Isovaleryl-VV[Sta]A[Sta]-OH), the NR-1 band formation (cathepsin D [1]) was “NR-1 band increase stopped”, the Y/L clipping (cathepsin D [1]) was “Y/L clipping ceased” and the “HMW formation (SE-UPLC)” value (cathepsin D [2]; [8]) was “reduced HMW formation”. The “NR1 formation (CE-SDS)” value (cathepsin D [2]; [8]) was “reduced NR1 formation”.
For aflibercept, the Y/L clipping (cathepsin D [3]; DS at t=0, 100 ppm acidified cathepsin D, 37° C., 5 hours) was “led to Y/L clipping of aflibercept”, the “NR-1 band formation and Y/L cleavage” value (cathepsin D [3]; aflibercept DS, 0.5-20 ppm acidified cathepsin D, neutral condition, 7 days at 37° C.) was “correlation between spiked-in cathepsin D and NR-1 band formation, and Y/L cleavage” and the Y/L clipping (cathepsin D [3]; aflibercept DS, 10 ppm Cathepsin D spiked in, pH 6.1, 37° C., 8 days) was “Negligible”. For the same compound, the Y/L clipping (cathepsin D [3]; aflibercept DS, 100 ppm Cathepsin D spiked in, pH 6.1, 37° C., 8 days) was less than 1%, the NR-1 band formation (cathepsin D [4]; DSI sample, pH 4.5 compared to pH 6.3) was “significant NR-1 band” and the NR-1 band formation (cathepsin D [4]; pH 6.45) was “Effectively no NR-1 band is formed”. For the same compound, the 92Y93L clipping (cathepsin D [4]; pH increased to 6.45 by adding sodium citrate, 37° C. for 12 days) was “stopped the 92Y93L clipping”, the “rates of aggregation and fragmentation” value ([5]; 114.3 mg/mL formulated drug substance (FDS) lot, accelerated stability 25° C. for 6 months) was “increased rates of aggregation and fragmentation” and the fragmentation ([5]; 5° C. condition, through the 12-month time point) was “absence of fragmentation”. For the same compound, the LMW levels ([5]; FDS lots after modified SEC purification (earlier cut), 25° C. at 3 months) was “in line with comparators”, the “levels of Y92/L93 clipping, high concentration lot compared to low concentration lots” value [6] was 3.4 × and the “KD of aflibercept-cathepsin D interaction, change” value (cathepsin D [7]; about 0.003% PS20 (polysorbate 20)) was “about 4 fold”. For the same compound, the “binding to Cathepsin D” value (cathepsin D [7]; range of VEGF-Trap concentration) was “concentration dependent binding”, the “interaction between aflibercept and cathepsin D” value (cathepsin D [7]; range of buffer pH) was “increased with reducing buffer pH” and the “formation of NR1” value (cathepsin D [2]; FDS, 5° C., inactive cathepsin D (inhibitor and/or low temperature), up to 18 months) was “no formation of NR1”.
